The labels stand for the following.
B1: REGN14 (antibody, V domains shown)
VH: EVQLVESGGDLVQPGRSLRLSCAASGFTFDDYAMHWVRQAPGKGLEWVSVISWNSDVIAYSDSVKGRFTISRDNAKNSLYLQMNSLRTEDTALYYCTKGHKWSFFDYWGQGTLVTVSS
VL: EIVLTQSPATLSLSPGERATLSCRASQSISSYLAWYQQKPGQAPRLLIFNVANRATDIPARFSGSGSGTDFTLTISSLEPEDFAVYYCQQRSNWPLTFGGGTKVEIK
B2: BI655130 (antibody, V domains shown)
VH: QVQLVQSGAEVKKPGASVKVSCKASGYSFTSSWIHWVKQAPGQGLEWMGEINPGNVRTNYNENFRNKVTMTVDTSISTAYMELSRLRSDDTAVYYCTVVFYGEPYFPYWGQGTLVTVSS
VL: QIVLTQSPGTLSLSPGERATMTCTASSSVSSSYFHWYQQKPGQAPRLWIYRTSRLASGVPDRFSGSGSGTDFTLTISRLEPEDAATYYCHQFHRSPLTFGAGTKLEIK
B3: ANB019 (antibody, V domains shown)
VH: QVQLVQSGAEVKKPGASVKVSCKASGYTFTNYWMNWVRQAPRQGLEWMGMFHPTGDVTRLNQKFKDRVTMTRDTSTSTVYMELSSLRSEDTAVYYCARTTSMIIGGFAYWGQGTLVTVSS
VL: DIVMTQTPLSLSVTPGQPASISCRSSKSLLHRNAITYFYWYLHKPGQPPQLLIYQMSNLASGVPDRFSGSGSGTDFTLKISRVEAEDVGVYYCAQNLELPLTFGGGTKVEIK

The target in this assay is membrane cyno IL-36R (cynomolgus). The experiment in a line: binding to cynomolgus IL-36R; the legend and Example 8 say membrane cyno IL-36R on transfected HEK293 cells by FACS, but the y axis on the sheet is OD450 nm; unit taken from the x axis. A general note: In flow cytometry, cells or beads pass a laser one at a time.
As usually defined, the EC50 is the concentration that produces a half-maximal response. With B1, the EC50 stood at 0.0059 µg/mL.
Under B2 stands 0.196 µg/mL.
Consider B3, for which the EC50 turned out to be 0.0132 µg/mL.

These data come from patent US20250002593A1.
